What was measured:
Assay in all cases: flow cytometry on cells; 2D3 cells with a VHH-CAR incubated with biotinylated CS1 antigen, then PE-coupled streptavidin
Details in all cases: one partner purified
[1] = biological target: T1, VHH-2 CAR on 2D3 reporter T cells (llama | human)
T1 construct: as the VHH of m1; cloned by PstI/BstEII from pHEN6c; hinge region derived from human IgG4; transmembrane and intracellular co-stimulatory domain derived from human CD28; also called 2D3-2; VHH-CAR with VHH-2; source: 2D3 reporter T cells, lentivirally transduced, sorted, on cells
T1 sequence (heavy, as listed by the source): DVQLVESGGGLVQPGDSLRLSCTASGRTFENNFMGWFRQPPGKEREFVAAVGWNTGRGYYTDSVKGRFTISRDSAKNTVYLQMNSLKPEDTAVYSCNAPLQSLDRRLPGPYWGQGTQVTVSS

[2] = biological target: T2, VHH-6 CAR on 2D3 reporter T cells (llama | human)
T2 construct: as the VHH of m2; cloned by PstI/BstEII from pHEN6c; hinge region derived from human IgG4; transmembrane and intracellular co-stimulatory domain derived from human CD28; also called 2D3-6; VHH-CAR with VHH-6; source: 2D3 reporter T cells, lentivirally transduced, sorted, on cells
T2 sequence (heavy, as listed by the source): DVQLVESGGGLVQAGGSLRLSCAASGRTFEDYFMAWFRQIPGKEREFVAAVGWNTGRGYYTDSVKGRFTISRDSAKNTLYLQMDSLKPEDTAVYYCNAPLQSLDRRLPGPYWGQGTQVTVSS

[3] = biological target: T3, VHH-17 CAR on 2D3 reporter T cells (llama | human)
T3 construct: as the VHH of m3; cloned by PstI/BstEII from pHEN6c; hinge region derived from human IgG4; transmembrane and intracellular co-stimulatory domain derived from human CD28; also called 2D3-17; VHH-CAR with VHH-17; source: 2D3 reporter T cells, lentivirally transduced, sorted, on cells
T3 sequence (heavy, as listed by the source): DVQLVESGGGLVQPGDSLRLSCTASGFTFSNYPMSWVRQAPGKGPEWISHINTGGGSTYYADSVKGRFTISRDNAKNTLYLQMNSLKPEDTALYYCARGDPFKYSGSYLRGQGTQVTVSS

[4] = biological target: T4, VHH-29 CAR on 2D3 reporter T cells (llama | human)
T4 construct: as the VHH of m7; cloned by PstI/BstEII from pHEN6c; hinge region derived from human IgG4; transmembrane and intracellular co-stimulatory domain derived from human CD28; also called 2D3-29; VHH-CAR with VHH-29; source: 2D3 reporter T cells, lentivirally transduced, sorted, on cells

[5] = biological target: T5, VHH-53 CAR on 2D3 reporter T cells (llama | human)
T5 construct: as the VHH of m10; cloned by PstI/BstEII from pHEN6c; hinge region derived from human IgG4; transmembrane and intracellular co-stimulatory domain derived from human CD28; also called 2D3-53; VHH-CAR with VHH-53; source: 2D3 reporter T cells, lentivirally transduced, sorted, on cells

[6] = biological target: T6, VHH-57 CAR on 2D3 reporter T cells (llama | human)
T6 construct: as the VHH of m12; cloned by PstI/BstEII from pHEN6c; hinge region derived from human IgG4; transmembrane and intracellular co-stimulatory domain derived from human CD28; also called 2D3-57; VHH-CAR with VHH-57; source: 2D3 reporter T cells, lentivirally transduced, sorted, on cells

[7] = biological target: T7, VHH-61 CAR on 2D3 reporter T cells (llama | human)
T7 construct: as the VHH of m13; cloned by PstI/BstEII from pHEN6c; hinge region derived from human IgG4; transmembrane and intracellular co-stimulatory domain derived from human CD28; also called 2D3-61; VHH-CAR with VHH-61; source: 2D3 reporter T cells, lentivirally transduced, sorted, on cells

[8] = biological target: T8, VHH-63 CAR on 2D3 reporter T cells (llama | human)
T8 construct: as the VHH of m14; cloned by PstI/BstEII from pHEN6c; hinge region derived from human IgG4; transmembrane and intracellular co-stimulatory domain derived from human CD28; also called 2D3-63; VHH-CAR with VHH-63; source: 2D3 reporter T cells, lentivirally transduced, sorted, on cells

[9] = biological target: T9, VHH-71 CAR on 2D3 reporter T cells (llama | human)
T9 construct: as the VHH of m16; cloned by PstI/BstEII from pHEN6c; hinge region derived from human IgG4; transmembrane and intracellular co-stimulatory domain derived from human CD28; also called 2D3-71; VHH-CAR with VHH-71; source: 2D3 reporter T cells, lentivirally transduced, sorted, on cells

[10] = biological target: T10, VHH-73 CAR on 2D3 reporter T cells (llama | human)
T10 construct: as the VHH of m17; cloned by PstI/BstEII from pHEN6c; hinge region derived from human IgG4; transmembrane and intracellular co-stimulatory domain derived from human CD28; also called 2D3-73; VHH-CAR with VHH-73; source: 2D3 reporter T cells, lentivirally transduced, sorted, on cells

Measured: binding result

B1: biotinylated recombinant human CS1 (CS1-(his)C-PEG4-biotin) (domain or fragment, UniProt Q9NQ25 23-226, looked up)
chain: SGPVKELVGSVGGAVTFPLKSKVKQVDSIVWTFNTTPLVTIQPEGGTIIVTQNRNRERVDFPDGGYSLKLSKLKKNDSGIYYVGIYSSSLQQPSTQEYVLHVYEHLSKPKVTMGLQSNKNGTCVTNLTCCMEHGEEDVIYTWKALGQAANESHNGSILPISWRWGESDMTFICVARNPVSRNFSSPILARKLCEGAADDPDSSM
modifications: PEG4-biotin
notes: CS1 (SLAMF7, CD319), human, the extracellular portion, biotinylated variant; also called biotinylated CS1 antigen; biotinylated CS1 protein; source: custom-produced by U Protein Express
binds: all assays above
